T1: ParB 65-139 (RHH domain) (Leifsonia xyli subsp. cynodontis …, UniProt Q6EEF9 65-139)
T1 sequence: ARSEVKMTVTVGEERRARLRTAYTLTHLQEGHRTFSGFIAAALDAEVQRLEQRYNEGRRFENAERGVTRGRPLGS

B1: R3-18-1C (dsDNA)
DNA 1: CGAATAGGTGGAAAAGCC
DNA 2: GGCTTTTCCACCTATTCG
B2: R3-18-12T (dsDNA)
DNA 1: GGAATAGGTGGTAAAGCC
DNA 2: GGCTTTACCACCTATTCC
B3: R3-18-13G (dsDNA)
DNA 1: GGAATAGGTGGAGAAGCC
DNA 2: GGCTTCTCCACCTATTCC
B4: R3-18-9G (dsDNA)
DNA 1: GGAATAGGGGGAAAAGCC
DNA 2: GGCTTTTCCCCCTATTCC
B5: R3-18-5C (dsDNA)
DNA 1: GGAACAGGTGGAAAAGCC
DNA 2: GGCTTTTCCACCTGTTCC
B6: R3-18-4G (dsDNA)
DNA 1: GGAGTAGGTGGAAAAGCC
DNA 2: GGCTTTTCCACCTACTCC
B7: R4-16 (dsDNA)
DNA 1: GAAAAGCCAGAAACAG
DNA 2: CTGTTTCTGGCTTTTC
B8: R2-18 (dsDNA)
DNA 1: AGTAAAGTAGGAATAGGT
DNA 2: ACCTATTCCTACTTTACT
B9: R3-18-13T (dsDNA)
DNA 1: GGAATAGGTGGATAAGCC
DNA 2: GGCTTATCCACCTATTCC
B10: R3-18-16A (dsDNA)
DNA 1: GGAATAGGTGGAAAAACC
DNA 2: GGTTTTTCCACCTATTCC
B11: R3-18-18A (dsDNA)
DNA 1: GGAATAGGTGGAAAAGCA
DNA 2: TGCTTTTCCACCTATTCC
B12: R3-18-6G (dsDNA)
DNA 1: GGAATGGGTGGAAAAGCC
DNA 2: GGCTTTTCCACCCATTCC
B13: R3-18-1T (dsDNA)
DNA 1: TGAATAGGTGGAAAAGCC
DNA 2: GGCTTTTCCACCTATTCA
B14: R3-18-9A (dsDNA)
DNA 1: GGAATAGGAGGAAAAGCC
DNA 2: GGCTTTTCCTCCTATTCC
B15: R4-20 (dsDNA)
DNA 1: TGGAAAAGCCAGAAACAGTG
DNA 2: CACTGTTTCTGGCTTTTCCA
B16: R3-18-7C (dsDNA)
DNA 1: GGAATACGTGGAAAAGCC
DNA 2: GGCTTTTCCACGTATTCC
B17: R3-18-12G (dsDNA)
DNA 1: GGAATAGGTGGGAAAGCC
DNA 2: GGCTTTCCCACCTATTCC
B18: R3-18-8T (dsDNA)
DNA 1: GGAATAGTTGGAAAAGCC
DNA 2: GGCTTTTCCAACTATTCC
B19: R3-18-3T (dsDNA)
DNA 1: GGTATAGGTGGAAAAGCC
DNA 2: GGCTTTTCCACCTATACC
B20: R3-18-15T (dsDNA)
DNA 1: GGAATAGGTGGAAATGCC
DNA 2: GGCATTTCCACCTATTCC
B21: R3-18-7T (dsDNA)
DNA 1: GGAATATGTGGAAAAGCC
DNA 2: GGCTTTTCCACATATTCC
B22: R3-18-15G (dsDNA)
DNA 1: GGAATAGGTGGAAAGGCC
DNA 2: GGCCTTTCCACCTATTCC
B23: R3-18-6C (dsDNA)
DNA 1: GGAATCGGTGGAAAAGCC
DNA 2: GGCTTTTCCACCGATTCC
B24: R3-18-11C (dsDNA)
DNA 1: GGAATAGGTGCAAAAGCC
DNA 2: GGCTTTTGCACCTATTCC
B25: R3-18-6T (dsDNA)
DNA 1: GGAATTGGTGGAAAAGCC
DNA 2: GGCTTTTCCACCAATTCC
B26: R3-18-14C (dsDNA)
DNA 1: GGAATAGGTGGAACAGCC
DNA 2: GGCTGTTCCACCTATTCC
B27: R3-18-2T (dsDNA)
DNA 1: GTAATAGGTGGAAAAGCC
DNA 2: GGCTTTTCCACCTATTAC
B28: R3-18-1A (dsDNA)
DNA 1: AGAATAGGTGGAAAAGCC
DNA 2: GGCTTTTCCACCTATTCT
B29: R3-18-9C (dsDNA)
DNA 1: GGAATAGGCGGAAAAGCC
DNA 2: GGCTTTTCCGCCTATTCC
B30: R3-18-2A (dsDNA)
DNA 1: GAAATAGGTGGAAAAGCC
DNA 2: GGCTTTTCCACCTATTTC
B31: R1-18 (dsDNA)
DNA 1: TGGCTATCCAGTAAAGTA
DNA 2: TACTTTACTGGATAGCCA
B32: R3-18-4T (dsDNA)
DNA 1: GGATTAGGTGGAAAAGCC
DNA 2: GGCTTTTCCACCTAATCC
B33: R3-18-10T (dsDNA)
DNA 1: GGAATAGGTTGAAAAGCC
DNA 2: GGCTTTTCAACCTATTCC
B34: R3-18-8A (dsDNA)
DNA 1: GGAATAGATGGAAAAGCC
DNA 2: GGCTTTTCCATCTATTCC
B35: R3-18-14T (dsDNA)
DNA 1: GGAATAGGTGGAATAGCC
DNA 2: GGCTATTCCACCTATTCC
B36: R3-18-11T (dsDNA)
DNA 1: GGAATAGGTGTAAAAGCC
DNA 2: GGCTTTTACACCTATTCC
B37: R3-18-17G (dsDNA)
DNA 1: GGAATAGGTGGAAAAGGC
DNA 2: GCCTTTTCCACCTATTCC
B38: R3-18-18T (dsDNA)
DNA 1: GGAATAGGTGGAAAAGCT
DNA 2: AGCTTTTCCACCTATTCC
B39: R3-18-13C (dsDNA)
DNA 1: GGAATAGGTGGACAAGCC
DNA 2: GGCTTGTCCACCTATTCC
B40: R3-18-7A (dsDNA)
DNA 1: GGAATAAGTGGAAAAGCC
DNA 2: GGCTTTTCCACTTATTCC
B41: R3-18-8C (dsDNA)
DNA 1: GGAATAGCTGGAAAAGCC
DNA 2: GGCTTTTCCAGCTATTCC
B42: R3-18-15C (dsDNA)
DNA 1: GGAATAGGTGGAAACGCC
DNA 2: GGCGTTTCCACCTATTCC
B43: R3-18-3C (dsDNA)
DNA 1: GGCATAGGTGGAAAAGCC
DNA 2: GGCTTTTCCACCTATGCC
B44: R3-18-16C (dsDNA)
DNA 1: GGAATAGGTGGAAAACCC
DNA 2: GGGTTTTCCACCTATTCC
B45: R3-18-5A (dsDNA)
DNA 1: GGAAAAGGTGGAAAAGCC
DNA 2: GGCTTTTCCACCTTTTCC
B46: R3-18-4C (dsDNA)
DNA 1: GGACTAGGTGGAAAAGCC
DNA 2: GGCTTTTCCACCTAGTCC
B47: R3-18-2C (dsDNA)
DNA 1: GCAATAGGTGGAAAAGCC
DNA 2: GGCTTTTCCACCTATTGC
B48: R3-18-11A (dsDNA)
DNA 1: GGAATAGGTGAAAAAGCC
DNA 2: GGCTTTTTCACCTATTCC
B49: R3-18-16T (dsDNA)
DNA 1: GGAATAGGTGGAAAATCC
DNA 2: GGATTTTCCACCTATTCC
B50: R3-18-12C (dsDNA)
DNA 1: GGAATAGGTGGCAAAGCC
DNA 2: GGCTTTGCCACCTATTCC
B51: R3-18-14G (dsDNA)
DNA 1: GGAATAGGTGGAAGAGCC
DNA 2: GGCTCTTCCACCTATTCC
B52: R3-18-5G (dsDNA)
DNA 1: GGAAGAGGTGGAAAAGCC
DNA 2: GGCTTTTCCACCTCTTCC
B53: R3-18-3G (dsDNA)
DNA 1: GGGATAGGTGGAAAAGCC
DNA 2: GGCTTTTCCACCTATCCC
B54: R3-18-17A (dsDNA)
DNA 1: GGAATAGGTGGAAAAGAC
DNA 2: GTCTTTTCCACCTATTCC
B55: R3-18-17T (dsDNA)
DNA 1: GGAATAGGTGGAAAAGTC
DNA 2: GACTTTTCCACCTATTCC

The target of the series is T1, ParB 65-139 (RHH domain). As to the kind of experiment: ITC.
What is called Kd is the constant that tells how readily two partners part at equilibrium. As for B1, the Kd turned out to be 216 ± 22 nM.
As for B2, the figure is 57 ± 16 nM; as for B3, 64 ± 15 nM.
For B4, the Kd turned out to be 365 ± 57 nM. Compared with the last molecule, the Kd is about 5.7-fold higher.
In turn, B5 showed a Kd of 39 ± 13 nM.
Take B6: the Kd turned out to be 62 ± 15 nM.
B7 yielded a Kd of 530 ± 50 nM.
In turn, B8 had an equilibrium dissociation constant (Kd) of 380 ± 100 nM.
Turning to B9, the Kd turned out to be 73 ± 22 nM. This Kd lies about 5.2-fold lower than the previous one.
B10: the Kd turned out to be 22 ± 9 nM.
In turn, B11 showed a Kd of 46 ± 10 nM. This Kd lies about 2.1-fold higher than the previous one.
B12 came in with a Kd of 209 ± 77 nM.
The figure for B13 is 67 ± 6 nM; for B14 it is 143 ± 31 nM; for B15 it is 68 ± 48 nM.
The figure for B16 is 36 ± 9 nM; for B17 it is 203 ± 43 nM; for B18 it is 17 ± 6 nM.
As for B19, the figure is 123 ± 12 nM.
Molecule B20 had a Kd of 30 ± 6 nM.
B21: the Kd stood at 35 ± 5 nM.
In turn, B22 displayed a Kd of 88 ± 12 nM.
As for B23, the figure is 60 ± 28 nM; as for B24, 56 ± 11 nM.
In the case of B25, the Kd amounted to 37 ± 5 nM.
B26 returned a Kd of 33 ± 10 nM.
As for B27, the Kd was determined as 187 ± 20 nM.
Molecule B28 registered a Kd of 56 ± 12 nM.
As for B29, the Kd was found to be 46 ± 11 nM.
The figure for B30 is 59 ± 29 nM.
The figure for B31 is 950 ± 680 nM; for B32 it is 33 ± 8 nM.
The figure for B33 is 18 ± 2 nM; for B34 it is 30 ± 7 nM; for B35 it is 46 ± 8 nM.
The molecule B36 yielded a Kd of 41 ± 9 nM.
The figure for B37 is 35 ± 11 nM; for B38 it is 32 ± 6 nM.
The figure for B39 is 46 ± 12 nM.
In the case of B40, the affinity, expressed as Kd, was 15 ± 5 nM.
B41 gave a Kd of 32 ± 8 nM.
As for B42, the figure is 81 ± 8 nM; as for B43, 89 ± 13 nM.
On to B44, for which binding was characterised by a dissociation constant (Kd) of 20 ± 7 nM.
The molecule B45 had a Kd of 27 ± 11 nM.
As for B46, the figure is 45 ± 12 nM; as for B47, 189 ± 22 nM.
The molecule B48 showed a Kd of 44 ± 21 nM.
B49 showed a Kd of 16 ± 6 nM.
Molecule B50 yielded a Kd of 58 ± 31 nM.
The molecule B51 showed a Kd of 42 ± 9 nM.
The molecule B52 showed a Kd of 38 ± 9 nM.
With B53, the affinity, expressed as Kd, was 121 ± 31 nM.
In turn, B54 came in with a Kd of 84 ± 13 nM.
Turning to B55, the Kd came out at 30 ± 8 nM.

The record behind these values is paper PMC3074162.
